The text below walks through data of IntAct's records for PubMed 9701578.

To fix the notation:
B1: Receptor protein kinase CLAVATA1 (Arabidopsis thaliana (Mouse-ear cress)), Q9SYQ8 (parent)
chain: MAMRLLKTHLLFLHLYLFFSPCFAYTDMEVLLNLKSSMIGPKGHGLHDWIHSSSPDAHCSFSGVSCDDDARVISLNVSFTPLFGTISPEIGMLTHLVNLTLAANNFTGELPLEMKSLTSLKVLNISNNGNLTGTFPGEILKAMVDLEVLDTYNNNFNGKLPPEMSELKKLKYLSFGGNFFSGEIPESYGDIQSLEYLGLNGAGLSGKSPAFLSRLKNLREMYIGYYNSYTGGVPPEFGGLTKLEILDMASCTLTGEIPTSLSNLKHLHTLFLHINNLTGHIPPELSGLVSLKSLDLSINQLTGEIPQSFINLGNITLINLFRNNLYGQIPEAIGELPKLEVFEVWENNFTLQLPANLGRNGNLIKLDVSDNHLTGLIPKDLCRGEKLEMLILSNNFFFGPIPEELGKCKSLTKIRIVKNLLNGTVPAGLFNLPLVTIIELTDNFFSGELPVTMSGDVLDQIYLSNNWFSGEIPPAIGNFPNLQTLFLDRNRFRGNIPREIFELKHLSRINTSANNITGGIPDSISRCSTLISVDLSRNRINGEIPKGINNVKNLGTLNISGNQLTGSIPTGIGNMTSLTTLDLSFNDLSGRVPLGGQFLVFNETSFAGNTYLCLPHRVSCPTRPGQTSDHNHTALFSPSRIVITVIAAITGLILISVAIRQMNKKKNQKSLAWKLTAFQKLDFKSEDVLECLKEENIIGKGGAGIVYRGSMPNNVDVAIKRLVGRGTGRSDHGFTAEIQTLGRIRHRHIVRLLGYVANKDTNLLLYEYMPNGSLGELLHGSKGGHLQWETRHRVAVEAAKGLCYLHHDCSPLILHRDVKSNNILLDSDFEAHVADFGLAKFLVDGAASECMSSIAGSYGYIAPEYAYTLKVDEKSDVYSFGVVLLELIAGKKPVGEFGEGVDIVRWVRNTEEEITQPSDAAIVVAIVDPRLTGYPLTSVIHVFKIAMMCVEEEAAARPTMREVVHMLTNPPKSVANLIAF
partner: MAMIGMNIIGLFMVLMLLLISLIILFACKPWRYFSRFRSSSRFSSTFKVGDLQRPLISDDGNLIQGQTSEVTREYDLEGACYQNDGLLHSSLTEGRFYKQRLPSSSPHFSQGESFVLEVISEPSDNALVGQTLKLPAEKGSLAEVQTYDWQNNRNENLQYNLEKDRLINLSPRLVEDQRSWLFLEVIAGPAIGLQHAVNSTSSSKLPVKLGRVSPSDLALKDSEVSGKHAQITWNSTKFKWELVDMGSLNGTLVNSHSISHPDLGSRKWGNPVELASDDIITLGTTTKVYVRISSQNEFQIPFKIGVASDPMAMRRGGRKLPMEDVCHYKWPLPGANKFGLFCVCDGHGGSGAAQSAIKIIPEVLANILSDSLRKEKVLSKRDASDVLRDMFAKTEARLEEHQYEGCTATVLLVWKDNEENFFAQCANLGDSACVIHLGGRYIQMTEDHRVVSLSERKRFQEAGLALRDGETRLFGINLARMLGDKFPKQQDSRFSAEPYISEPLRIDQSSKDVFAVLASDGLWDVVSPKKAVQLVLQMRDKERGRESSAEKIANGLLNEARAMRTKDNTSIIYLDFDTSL

The variants in the experiment derive from B1. To be noted: with KAPP.
K720E: the “effect of a mutation on the interaction” value is “disrupting interaction”.
